This experiment deals with PD-L1 on the surface of murine cells (MC38, B16, wild-type DC 2.4) (murine) (UniProt Q9EP73). As to the kind of experiment: FACS on MC38 cells, FITC-labeled goat anti-human secondary antibody.
Chain of PD-L1 on the surface of murine cells (MC38, B16, wild-type DC 2.4) (murine) (Q9EP73 19-290): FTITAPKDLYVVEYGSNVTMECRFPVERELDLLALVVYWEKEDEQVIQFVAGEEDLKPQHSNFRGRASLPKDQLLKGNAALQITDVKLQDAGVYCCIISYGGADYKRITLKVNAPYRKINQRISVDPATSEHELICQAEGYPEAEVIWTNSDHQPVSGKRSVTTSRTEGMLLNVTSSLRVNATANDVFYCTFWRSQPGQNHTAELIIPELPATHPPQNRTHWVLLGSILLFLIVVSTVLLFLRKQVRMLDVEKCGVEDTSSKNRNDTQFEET

As for isotype control IgG (antibody), the MFI stood at 167 and the shift rate of the FITC positive signal relative to the NC group amounted to 1.7%.

These data come from patent US20240252670A1, “ANTIBODY DRUG CONJUGATE, PREPARATION METHOD THEREFOR AND APPLICATION THEREOF” (TSINGHUA UNIVERSITY, priority 2021, published 2024).
